Laboratory results from paper PMC12325699, “Utilizing native nanodiscs to isolate active TRPC3 channels and expand structural analysis capabilities” (Scientific Reports, 2025).

Molecular target: the molecule itself
Test: negative-stain electron microscopy; purified TRPC3 at 0.1 mg/mL, extracted from Expi293F membranes with DDM or with DDDG, on a TEM grid, stained with 1% uranyl acetate

B1: canonical transient receptor potential channel 3 (TRPC3), TRPC3-YFP-3xFLAG construct (natural protein, human, UniProt Q13507-3 1-848, looked up)
chain: MEGSPSLRRMTVMREKGRRQAVRGPAFMFNDRGTSLTAEEERFLDAAEYGNIPVVRKMLEESKTLNVNCVDYMGQNALQLAVGNEHLEVTELLLKKENLARIGDALLLAISKGYVRIVEAILNHPGFAASKRLTLSPCEQELQDDDFYAYDEDGTRFSPDITPIILAAHCQKYEVVHMLLMKGARIERPHDYFCKCGDCMEKQRHDSFSHSRSRINAYKGLASPAYLSLSSEDPVLTALELSNELAKLANIEKEFKNDYRKLSMQCKDFVVGVLDLCRDSEEVEAILNGDLESAEPLEVHRHKASLSRVKLAIKYEVKKFVAHPNCQQQLLTIWYENLSGLREQTIAIKCLVVLVVALGLPFLAIGYWIAPCSRLGKILRSPFMKFVAHAASFIIFLGLLVFNASDRFEGITTLPNITVTDYPKQIFRVKTTQFTWTEMLIMVWVLGMMWSECKELWLEGPREYILQLWNVLDFGMLSIFIAAFTARFLAFLQATKAQQYVDSYVQESDLSEVTLPPEIQYFTYARDKWLPSDPQIISEGLYAIAVVLSFSRIAYILPANESFGPLQISLGRTVKDIFKFMVLFIMVFFAFMIGMFILYSYYLGAKVNAAFTTVEESFKTLFWSIFGLSEVTSVVLKYDHKFIENIGYVLYGIYNVTMVVVLLNMLIAMINSSYQEIEDDSDVEWKFARSKLWLSYFDDGKTLPPPFSLVPSPKSFVYFIMRIVNFPKCRRRRLQKDIEMGMGNSKSRLNLFTQSNSRVFESHSFNSILNQPTRYQQIMKRLIKRYVLKAQVDKENDEVNEGELKEIKQDISSLRYELLEDKSQATEELAILIHKLSEKLNPSMLRCE
notes: a TEV site stands between the tags and TRPC3 by the plasmid's name; The protein was purified by its FLAG tag; no TEV cleavage step is described, so the tags were probably still on the protein in the electron microscopy; also called TRPC3–3 x FLAG–YFP; 3xFLAG-YFP; source: Expi293F, transiently transfected; membranes extracted with DDM or DDDG
- stoichiometry N: 4
